Results from the supplement of paper PMC7877785.
± gives the uncertainty stated by the source.

Test: self-splicing fitness, log relative to wild type (ln ratio); higher = more splicing; Tetrahymena group I intron in knt gene, E. coli kanamycin selection, DiMSum; sequences stand for … in CUCUCU…GGAGGGAAAAGUUAUCAGGCAUGCACCUGGUAGCUAGUCUUUAAACCAAUAGAUUGCAUCGGUUUAAAAGGCAAGACCGUCAAAUUGCGGGAAAGGGGUCAACAGCCGUUCAGUACCAAGUCUCAGGGGAAACUUUGAGAUGGCCUUGCAAAGGGUAUGGUAAUAAGCUGACGGACAUGGUCCUAACCACGCAGCCAAGUCCUAAGUCAACAGAUCUUCUGUUGAUAUGGAUGCAGUUCACAGACUAAAUGUCGGUCGGGGAAGAUGUAUUCUUCUCAUAAGAUAUAGUCGGACCUCUCCUUAAUGGGAGCUAGCGGAUGAAGUGAUGCAACACUGGAGCCGCUGGGAACUAAUUUGUAUGCGAAAGUAUAUUGAUUAGUUUUGGAGUACUCGUGGUCG
Method in brief: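 Fitness was computed with DiMSum as the error-weighted combination of replicate fold changes, kanamycin versus none, each normalised to wild type. The library randomised all eight intron nucleotides of the P1ex region, with the intron placed in the knt kanamycin-resistance gene on pET-22b(+) in E. coli BL21(DE3). Six replicate transformations were grown overnight at 37°C or 30°C on LB agar with or without 25 μg/mL kanamycin, plus 100 μg/mL carbenicillin, 50 μM IPTG and 0.2% rhamnose. Pooled colonies were amplicon-sequenced on an Illumina HiSeq 2500.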

Sequence	self-splicing fitness (ln) (30 °C)	self-splicing fitness (ln) (37 °C)
CUUCAGCAAUAUUACGCGCG	-0.941 ± 0.056	-0.367 ± 0.087
CUUAAGCAAUAUUACGAAAA	-1.9 ± 0.26	
UCGAAGCAAUAUUACGAAUG	-2.95 ± 0.17	-1.84 ± 0.19
UUAAAGCAAUAUUACGUCGA	0.349 ± 0.082	0.262 ± 0.095
AGCGAGCAAUAUUACGCCAC	-1.84 ± 0.39	
CAUCAGCAAUAUUACGUCCC	-2.53 ± 0.31	-1.39 ± 0.27
GUUCAGCAAUAUUACGCGGC		-2.94 ± 0.43
AAAAAGCAAUAUUACGUCAG	-2.75 ± 0.15	-1.14 ± 0.13
UCCGAGCAAUAUUACGUCUG	-3.5 ± 0.24	
GCUUAGCAAUAUUACGAGCC	-4.35 ± 0.39	-1.53 ± 0.39
UUGCAGCAAUAUUACGAUCG	-1.13 ± 0.1	-0.473 ± 0.14
UAGCAGCAAUAUUACGGGAA	-2.47 ± 0.19	-1.41 ± 0.18
UUAAAGCAAUAUUACGAUGG	0.00244 ± 0.084	0.04 ± 0.1
CUUUAGCAAUAUUACGUCCG	-0.0797 ± 0.084	-0.326 ± 0.099
UUGUAGCAAUAUUACGCCUC	-2.07 ± 0.48	
UUGAAGCAAUAUUACGGAGU	-2.51 ± 0.17	-1.83 ± 0.18
UCCUAGCAAUAUUACGCGCC	-2.63 ± 0.17	-2.29 ± 0.24
GUUAAGCAAUAUUACGCGUG	-0.781 ± 0.1	-0.78 ± 0.099
CAAUAGCAAUAUUACGUGGG	-3.7 ± 0.15	-3.49 ± 0.21
CCACAGCAAUAUUACGUCUA	-3.53 ± 0.24	-2.43 ± 0.17

Sequence	self-splicing fitness (ln) (30 °C)	self-splicing fitness (ln) (37 °C)
CGGUAGCAAUAUUACGCAGG	-1.26 ± 0.12	-1.44 ± 0.18
AUCGAGCAAUAUUACGCCGU	-2.52 ± 0.21	-1.46 ± 0.31
ACGAAGCAAUAUUACGCCGA	-0.564 ± 0.086	-0.414 ± 0.1
UUCAAGCAAUAUUACGUAUU	-3.82 ± 0.17	-2.66 ± 0.16
GGGCAGCAAUAUUACGGGCU	-3.06 ± 0.14	-2.04 ± 0.18
UCCUAGCAAUAUUACGGUCA	-0.978 ± 0.079	-0.106 ± 0.089
UAACAGCAAUAUUACGUGCG	-0.551 ± 0.072	0.0501 ± 0.085
CUGGAGCAAUAUUACGGAAA	-2.47 ± 0.33	-2.78 ± 0.35
ACCAAGCAAUAUUACGCCAU	-0.983 ± 0.12	-1.56 ± 0.16
CAACAGCAAUAUUACGUCUA	-1.06 ± 0.053	-0.786 ± 0.055
CCUCAGCAAUAUUACGUAGA	-3.97 ± 0.28	-2.8 ± 0.3
UGCGAGCAAUAUUACGGAUU		-3.08 ± 0.4
UUAAAGCAAUAUUACGAUCU	-0.857 ± 0.065	-0.22 ± 0.088
GCCCAGCAAUAUUACGGUCU	-1.97 ± 0.063	-0.732 ± 0.081
UAGAAGCAAUAUUACGCAGU	-4.08 ± 0.29	-2.07 ± 0.25
UGAGAGCAAUAUUACGGGCG	-2.04 ± 0.21	-0.434 ± 0.19
GAAAAGCAAUAUUACGCGCC	-2.06 ± 0.16	-1.25 ± 0.17
UCAGAGCAAUAUUACGUGUU	-4.84 ± 0.27	-2.27 ± 0.17
GGGCAGCAAUAUUACGCCUU	-3.55 ± 0.29	-2.13 ± 0.22
CAUUAGCAAUAUUACGUUAA	-2.87 ± 0.22	-1.91 ± 0.2
